B1: TMEM175 (parent)
chain: ALLHQAETLQPSVWFGGREHVLMF
B2: ZNF649 (parent)
chain: LTEHKRIHTGKKPHVCSLCGKAFY

Variants of: B1
Assay: protein stability index of a GFP-peptide fusion (GPS, HEK-293T) (PSI 1-6); higher = more stable
Conditions: c terminus: a fixed tail appended
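Further: lentivirally expressed fusions sorted by FACS into six bins by GFP to DsRed ratio, PSI derived from sequencing read proportions per bin multiplied by bin number.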

Variant	protein stability index
ALLHQAETLQPSVWFGGRCHVLMF [E19C]	3.88
ALLHQAETLQPSVWFGGREHVLRF [M23R]	1.03
ELLHQAETLQPSVWFGGREHVLMF [A1E]	1.02
ALLHQAETLQPSVWFKGREHVLMF [G16K]	2.17
ALLHQAETLQPSVWFGGREHVSMF [L22S]	2.06
ALLHQAETLQPSVWFGGREHVFMF [L22F]	2.44
ALLHQAETLQPSEWFGGREHVLMF [V13E]	1.86
ALLHQAETLQPSVVFGGREHVLMF [W14V]	1.91
ALLHQAETLQPSDWFGGREHVLMF [V13D]	2.16
AQLHQAETLQPSVWFGGREHVLMF [L2Q]	1.42
ALLYQAETLQPSVWFGGREHVLMF [H4Y]	2.17
ALLHQAETLQPSVWFGGWEHVLMF [R18W]	3.12
ILLHQAETLQPSVWFGGREHVLMF [A1I]	3.59
ALLHQAETLQPSVWFGGREMVLMF [H20M]	3.07
ALLHQFETLQPSVWFGGREHVLMF [A6F]	3.21
RLLHQAETLQPSVWFGGREHVLMF [A1R]	1.81
ATLHQAETLQPSVWFGGREHVLMF [L2T]	1.53
ALLHQAETLQPSVWFGGREIVLMF [H20I]	2.97
ALLHQAETLQPSVNFGGREHVLMF [W14N]	1.3
ALPHQAETLQPSVWFGGREHVLMF [L3P]	1.61
ALLHQAETLQPSVAFGGREHVLMF [W14A]	1.66
ALLHQAETLQPSVWFGDREHVLMF [G17D]	1.27
APLHQAETLQPSVWFGGREHVLMF [L2P]	1.87
ALLHQCETLQPSVWFGGREHVLMF [A6C]	3.75
ALLHQAETLWPSVWFGGREHVLMF [Q10W]	1.51
ALLHQAETLQPSVWFGGRETVLMF [H20T]	3.65
ALLHQAETLQPSVWFHGREHVLMF [G16H]	2.1

Variant	protein stability index
ALLHQAETLQPNVWFGGREHVLMF [S12N]	1
ALLHQAETLQPSVWFGGREHVLMM [F24M]	3.11
ALLHQAETLMPSVWFGGREHVLMF [Q10M]	1.96
YLLHQAETLQPSVWFGGREHVLMF [A1Y]	2.71
ALLHQAETLQPSVWFGWREHVLMF [G17W]	1.67
ALLHQAETLQRSVWFGGREHVLMF [P11R]	4.75
ALLHQDETLQPSVWFGGREHVLMF [A6D]	2.55
ALLHQAETLQPSVWFLGREHVLMF [G16L]	2.28
ALLHQAETLQPSVWFGGREHVEMF [L22E]	2.09
ALLHQAETLQPSVLFGGREHVLMF [W14L]	1.73
ALLHQAETLQPSVWFGAREHVLMF [G17A]	3.03
ALLHQAETLQPSVEFGGREHVLMF [W14E]	1.38
ALLHQAEYLQPSVWFGGREHVLMF [T8Y]	2.91
ALLHQAETLQPSVWFGRREHVLMF [G17R]	3.53
ALLHQAETLQPSVWFGGRFHVLMF [E19F]	1.97
ALLHQKETLQPSVWFGGREHVLMF [A6K]	1.68
ALHHQAETLQPSVWFGGREHVLMF [L3H]	1.57
ALLHQAETLQPSVWFGGREHCLMF [V21C]	2.73
ALLHQAETLQPSVWFMGREHVLMF [G16M]	2.69
ALLHQAETLQPSVWFGGREHMLMF [V21M]	2.55
ALLHQAETLQLSVWFGGREHVLMF [P11L]	1.82
ALLHQAETLQPSVWFGGREHVLIF [M23I]	2.59
ALLHQAETLQPSVWFGNREHVLMF [G17N]	2.51
ALLHQAETSQPSVWFGGREHVLMF [L9S]	1.36
ASLHQAETLQPSVWFGGREHVLMF [L2S]	2.83
ALDHQAETLQPSVWFGGREHVLMF [L3D]	1.87
ALLDQAETLQPSVWFGGREHVLMF [H4D]	1.89

Variant	protein stability index
ALLHQAETLQPSVWFGGREHVLMR [F24R]	2.56
ALLHQAETLQPSVWFGGREHVLMT [F24T]	2
ALLHQAETLQPSVWFGGTEHVLMF [R18T]	2.46
DLLHQAETLQPSVWFGGREHVLMF [A1D]	1.48
ALLHQAETLQPSVWFGEREHVLMF [G17E]	1
ALLHQAETLQPSVSFGGREHVLMF [W14S]	1.55
ALLHQAETLQPSVWFGGREHVLAF [M23A]	1.2
ALLHQSETLQPSVWFGGREHVLMF [A6S]	1.68
ALRHQAETLQPSVWFGGREHVLMF [L3R]	1.62
ALLHQAETLQPSVWFGGREHVLLF [M23L]	3.66
ALLHQAETLQPSVWFGHREHVLMF [G17H]	2.45
ALLHQAETLQPSAWFGGREHVLMF [V13A]	3.02
ALLHVAETLQPSVWFGGREHVLMF [Q5V]	3.06
ALLGQAETLQPSVWFGGREHVLMF [H4G]	1.75
ALLPQAETLQPSVWFGGREHVLMF [H4P]	1.41
ALYHQAETLQPSVWFGGREHVLMF [L3Y]	3.46
ALLHQASTLQPSVWFGGREHVLMF [E7S]	2.22
ALLHQAETLQPSVWFDGREHVLMF [G16D]	2.04
ALLHQAETLQPSVWFGGLEHVLMF [R18L]	3.03
ALLHQAETLQPSVWFGGREHVLMW [F24W]	2.13
ALLHQAETLQPSVWFGGEEHVLMF [R18E]	1.76
ALLHQAETLQPSVWFGGRENVLMF [H20N]	2.48
ALLHQYETLQPSVWFGGREHVLMF [A6Y]	2.91
QLLHQAETLQPSVWFGGREHVLMF [A1Q]	2.96
CLLHQAETLQPSVWFGGREHVLMF [A1C]	1.71
AELHQAETLQPSVWFGGREHVLMF [L2E]	1.93

Variants of: B2
Assay: as above
Conditions: c terminus: a fixed tail appended

Variant	protein stability index
ATEHKRIHTGKKPHVCSLCGKAFY [L1A]	3.24
CTEHKRIHTGKKPHVCSLCGKAFY [L1C]	3.22
DTEHKRIHTGKKPHVCSLCGKAFY [L1D]	3.45
ETEHKRIHTGKKPHVCSLCGKAFY [L1E]	2.87
FTEHKRIHTGKKPHVCSLCGKAFY [L1F]	2.18
GTEHKRIHTGKKPHVCSLCGKAFY [L1G]	3.19
HTEHKRIHTGKKPHVCSLCGKAFY [L1H]	2.97
ITEHKRIHTGKKPHVCSLCGKAFY [L1I]	2.18
KTEHKRIHTGKKPHVCSLCGKAFY [L1K]	3.22
MTEHKRIHTGKKPHVCSLCGKAFY [L1M]	2.3
NTEHKRIHTGKKPHVCSLCGKAFY [L1N]	2.81
PTEHKRIHTGKKPHVCSLCGKAFY [L1P]	3.05
QTEHKRIHTGKKPHVCSLCGKAFY [L1Q]	3.02
RTEHKRIHTGKKPHVCSLCGKAFY [L1R]	3.27

Reference: the supplement of paper PMC10567573
